We go through 4 sequences from the supplement of paper PMC5998384.

The test system of data set [1] is HeLa Kyoto. As to the kind of experiment: solubility in G1/S (NP-40 vs SDS abundance) (log2 ratio); higher = more soluble. Conditions: cell cycle stage: G1/S.
Data set [2] has as its system HeLa Kyoto. As to the kind of experiment: melting temperature (median over replicates), in situ; higher = more thermally stable.
The test system of data set [3] is HeLa Kyoto. As to the kind of experiment: thermal stability score vs G1/S (z-score of summed log2 fold changes over temperatures); higher = more thermally stable than in G1/S.
For data set [4], the system named is HeLa Kyoto. As to the kind of experiment: solubility change mitosis vs G1/S (difference of NP-40 vs SDS log2 ratios) (log2 ratio difference); higher = more soluble in mitosis.
[5] abbreviates: cell cycle stage: early G1 (4.5 h after nocodazole release).
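Throughout, for melting temperature (median over replicates), in situ: HeLa Kyoto cells synchronized by double thymidine or nocodazole block, proteins quantified by TMT10plex mass spectrometry, three independent biological replicates.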
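Throughout, for solubility change mitosis vs G1/S (difference of NP-40 vs SDS log2 ratios): synchronized HeLa Kyoto cells (double thymidine block for G1/S, nocodazole release for mitosis), protein amounts in NP-40 versus SDS lysates quantified by mass spectrometry, three biological replicates.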
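Throughout, for solubility in G1/S (NP-40 vs SDS abundance): HeLa Kyoto cells arrested at G1/S by double thymidine block, proteins quantified by TMT10plex mass spectrometry in mild NP-40 versus SDS extracts, three biological replicates.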
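Throughout, for thermal stability score vs G1/S (z-score of summed log2 fold changes over temperatures): synchronized HeLa Kyoto cells, proteins quantified by TMT10plex mass spectrometry, three biological replicates, mitosis taken 0.5 h after nocodazole release, G1/S directly after double thymidine block.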

Consider “MRLRRLALFPGVALLLAAARLAAASDVLELTDDNFESRISDTGSAGLMLVEFFAPWCGHCKRLAPEYEAAATRLKGIVPLAKVDCTANTNTCNKYGVSGYPTLKIFRDGEEAGAYDGPRTADGIVSHLKKQAGPASVPLRTEEEFKKFISDKDASIVGFFDDSFSEAHSEFLKAASNLRDNYRFAHTNVESLVNEYDDNGEGIILFRPSHLTNKFEDKTVAYTEQKMTSGKIKKFIQENIFGICPHMTEDNKDLIQGKDLLIAYYDVDYEKNAKGSNYWRNRVMMVAKKFLDAGHKLNFAVASRKTFSHELSDFGLESTAGEIPVVAIRTAKGEKFVMQEEFSRDGKALERFLQDYFDGNLKRYLKSEPIPESNDGPVKVVVAENFDEIVNNENKDVLIEFYAPWCGHCKNLEPKYKELGEKLSKDPNIVIAKMDATANDVPSPYEVRGFPTIYFSPANKKLNPKKYEGGRELSDFISYLQREATNPPVIQEEKPKKKKKAQEDL [PDIA3]”, for which the “solubility in G1/S (log2)” value with HeLa Kyoto [1] came out at 0.299. The melting temperature with HeLa Kyoto [2] (cell cycle stage: G1/S) stood at 53.3 °C; in the data set with HeLa Kyoto [2] (cell cycle stage: mitosis), 53.7 °C. Further, the thermal stability score turned out to be 4.82 in the data set on HeLa Kyoto [3] (setting [5]) and 4.63 in the data set on HeLa Kyoto [3] (cell cycle stage: mitosis). In the data set on HeLa Kyoto [4], the “solubility change mitosis (log2)” value turned out to be 0.000907.

Regarding “MRLSSLLALLRPALPLILGLSLGCSLSLLRVSWIQGEGEDPCVEAVGERGGPQNPDSRARLDQSDEDFKPRIVPYYRDPNKPYKKVLRTRYIQTELGSRERLLVAVLTSRATLSTLAVAVNRTVAHHFPRLLYFTGQRGARAPAGMQVVSHGDERPAWLMSETLRHLHTHFGADYDWFFIMQDDTYVQAPRLAALAGHLSINQDLYLGRAEEFIGAGEQARYCHGGFGYLLSRSLLLRLRPHLDGCRGDILSARPDEWLGRCLIDSLGVGCVSQHQGQQYRSFELAKNRDPEKEGSSAFLSAFAVHPVSEGTLMYRLHKRFSALELERAYSEIEQLQAQIRNLTVLTPEGEAGLSWPVGLPAPFTPHSRFEVLGWDYFTEQHTFSCADGAPKCPLQGASRADVGDALETALEQLNRRYQPRLRFQKQRLLNGYRRFDPARGMEYTLDLLLECVTQRGHRRALARRVSLLRPLSRVEILPMPYVTEATRVQLVLPLLVAEAAAAPAFLEAFAANVLEPREHALLTLLLVYGPREGGRGAPDPFLGVKAAAAELERRYPGTRLAWLAVRAEAPSQVRLMDVVSKKHPVDTLFFLTTVWTRPGPEVLNRCRMNAISGWQAFFPVHFQEFNPALSPQRSPPGPPGAGPDPPSPPGADPSRGAPIGGRFDRQASAEGCFYNADYLAARARLAGELAGQEEEEALEGLEVMDVFLRFSGLHLFRAVEPGLVQKFSLRDCSPRLSEELYHRCRLSNLEGLGGRAQLAMALFEQEQANST [CHPF2]”, in the data set on HeLa Kyoto [1], the “solubility in G1/S (log2)” value was -0.00882. Further, the figures for the melting temperature in the data set on HeLa Kyoto [2] (cell cycle stage: G1/S) and in the data set with HeLa Kyoto [2] (cell cycle stage: mitosis) were 53.4 °C and 53 °C, respectively. Also, the thermal stability score in the data set with HeLa Kyoto [3] (setting [5]) was -0.504; in the data set with HeLa Kyoto [3] (cell cycle stage: mitosis), -0.497. Also, the “solubility change mitosis (log2)” value in the data set with HeLa Kyoto [4] was -0.00799.

As to “MRNLKLFRTLEFRDIQGPGNPQCFSLRTEQGTVLIGSEHGLIEVDPVSREVKNEVSLVAEGFLPEDGSGRIVGVQDLLDQESVCVATASGDVILCSLSTQQLECVGSVASGISVMSWSPDQELVLLATGQQTLIMMTKDFEPILEQQIHQDDFGESKFITVGWGRKETQFHGSEGRQAAFQMQMHESALPWDDHRPQVTWRGDGQFFAVSVVCPETGARKVRVWNREFALQSTSEPVAGLGPALAWKPSGSLIASTQDKPNQQDIVFFEKNGLLHGHFTLPFLKDEVKVNDLLWNADSSVLAVWLEDLQREESSIPKTCVQLWTVGNYHWYLKQSLSFSTCGKSKIVSLMWDPVTPYRLHVLCQGWHYLAYDWHWTTDRSVGDNSSDLSNVAVIDGNRVLVTVFRQTVVPPPMCTYQLLFPHPVNQVTFLAHPQKSNDLAVLDASNQISVYKCGDCPSADPTVKLGAVGGSGFKVCLRTPHLEKRYKIQFENNEDQDVNPLKLGLLTWIEEDVFLAVSHSEFSPRSVIHHLTAASSEMDEEHGQLNVSSSAAVDGVIISLCCNSKTKSVVLQLADGQIFKYLWESPSLAIKPWKNSGGFPVRFPYPCTQTELAMIGEEECVLGLTDRCRFFINDIEVASNITSFAVYDEFLLLTTHSHTCQCFCLRDASFKTLQAGLSSNHVSHGEVLRKVERGSRIVTVVPQDTKLVLQMPRGNLEVVHHRALVLAQIRKWLDKLMFKEAFECMRKLRINLNLIYDHNPKVFLGNVETFIKQIDSVNHINLFFTELKEEDVTKTMYPAPVTSSVYLSRDPDGNKIDLVCDAMRAVMESINPHKYCLSILTSHVKKTTPELEIVLQKVHELQGNAPSDPDAVSAEEALKYLLHLVDVNELYDHSLGTYDFDLVLMVAEKSQKDPKEYLPFLNTLKKMETNYQRFTIDKYLKRYEKAIGHLSKCGPEYFPECLNLIKDKNLYNEALKLYSPSSQQYQDISIAYGEHLMQEHMYEPAGLMFARCGAHEKALSAFLTCGNWKQALCVAAQLNFTKDQLVGLGRTLAGKLVEQRKHIDAAMVLEECAQDYEEAVLLLLEGAAWEEALRLVYKYNRLDIIETNVKPSILEAQKNYMAFLDSQTATFSRHKKRLLVVRELKEQAQQAGLDDEVPHGQESDLFSETSSVVSGSEMSGKYSHSNSRISARSSKNRRKAERKKHSLKEGSPLEDLALLEALSEVVQNTENLKDEVYHILKVLFLFEFDEQGRELQKAFEDTLQLMERSLPEIWTLTYQQNSATPVLGPNSTANSIMASYQQQKTSVPVLDAELFIPPKINRRTQWKLSLLD [IKBKAP]”, the “solubility in G1/S (log2)” value in the data set with HeLa Kyoto [1] is -0.206. Moreover, the melting temperature in the data set with HeLa Kyoto [2] (cell cycle stage: G1/S) is 50.2 °C; with HeLa Kyoto [2] (cell cycle stage: mitosis), 50 °C. For the same sequence, the thermal stability score was 0.962 with HeLa Kyoto [3] (setting [5]) and -0.0976 in the data set on HeLa Kyoto [3] (cell cycle stage: mitosis). Moreover, the “solubility change mitosis (log2)” value in the data set with HeLa Kyoto [4] was -0.15.

Turning to “MRPMRIFVNDDRHVMAKHSSVYPTQEELEAVQNMVSHTERALKAVSDWIDEQEKGSSEQAESDNMDVPPEDDSKEGAGEQKTEHMTRTLRGVMRVGLVAKGLLLKGDLDLELVLLCKEKPTTALLDKVADNLAIQLAAVTEDKYEILQSVDDAAIVIKNTKEPPLSLTIHLTSPVVREEMEKVLAGETLSVNDPPDVLDRQKCLAALASLRHAKWFQARANGLKSCVIVIRVLRDLCTRVPTWGPLRGWPLELLCEKSIGTANRPMGAGEALRRVLECLASGIVMPDGSGIYDPCEKEATDAIGHLDRQQREDITQSAQHALRLAAFGQLHKVLGMDPLPSKMPKKPKNENPVDYTVQIPPSTTYAITPMKRPMEEDGEEKSPSKKKKKIQKKEEKAEPPQAMNALMRLNQLKPGLQYKLVSQTGPVHAPIFTMSVEVDGNSFEASGPSKKTAKLHVAVKVLQDMGLPTGAEGRDSSKGEDSAEETEAKPAVVAPAPVVEAVSTPSAAFPSDATAEQGPILTKHGKNPVMELNEKRRGLKYELISETGGSHDKRFVMEVEVDGQKFQGAGSNKKVAKAYAALAALEKLFPDTPLALDANKKKRAPVPVRGGPKFAAKPHNPGFGMGGPMHNEVPPPPNLRGRGRGGSIRGRGRGRGFGGANHGGYMNAGAGYGSYGYGGNSATAGYSQFYSNGGHSGNASGGGGGGGGGSSGYGSYYQGDNYNSPVPPKHAGKKQPHGGQQKPSYGSGYQSHQGQQQSYNQSPYSNYGPPQGKQKGYNHGQGSYSYSNSYNSPGGGGGSDYNYESKFNYSGSGGRSGGNSYGSGGASYNPGSHGGYGGGSGGGSSYQGKQGGYSQSNYNSPGSGQNYSGPPSSYQSSQGGYGRNADHSMNYQYR [ILF3]”, in the data set with HeLa Kyoto [1], the “solubility in G1/S (log2)” value is -0.123. The results for the melting temperature with HeLa Kyoto [2] (cell cycle stage: G1/S) and with HeLa Kyoto [2] (cell cycle stage: mitosis) were 54.1 °C and 53.9 °C, respectively. The results for the thermal stability score with HeLa Kyoto [3] (setting [5]) and in the data set on HeLa Kyoto [3] (cell cycle stage: mitosis) were -0.903 and -1.89, respectively. Further, in the data set on HeLa Kyoto [4], the “solubility change mitosis (log2)” value stood at 0.113.
